Patent US20220177587A1, “METHODS AND USES OF VARIANT CD80 FUSION PROTEINS AND RELATED CONSTRUCTS” (Alpine Immune Sciences, Inc., priority 2018, published 2022)
Substitutions are numbered along the chain they refer to. In names and notes the source's numbering stands.

B1: CD80 E35D/M47V/N48K/V68M/K89N IgV-Fc, EAAAK linker (Fc fusion)
chain: VIHVTKEVKEVATLSCGHNVSVEELAQTRIYWQKDKKMVLTMMSGDVKIWPEYKNRTIFDITNNLSIMILALRPSDEGTYECVVLKYENDAFKREHLAEVTLSVKADEAAAK
B2: CD80 E35D/D46V/M47L/V68M/L85Q/E88D IgV-Fc, EAAAK linker (Fc fusion)
chain: B1 chain with D46V, V47L, K48N, L85Q, E88D, N89K
B3: CD80 E35D/M47V/N48K/V68M/K89N IgV-Fc, (EAAAK)3 linker (Fc fusion)
chain: VIHVTKEVKEVATLSCGHNVSVEELAQTRIYWQKDKKMVLTMMSGDVKIWPEYKNRTIFDITNNLSIMILALRPSDEGTYECVVLKYENDAFKREHLAEVTLSVKADEAAAKEAAAKEAAAK
B4: CD80 E35D/D46V/M47L/V68M/L85Q/E88D IgV-Fc, (EAAAK)3 linker (Fc fusion)
chain: B3 chain with D46V, V47L, K48N, L85Q, E88D, N89K
B5: CD80 E35D/M47L/Y53F/V68M/A71G/K93R/E95V IgV-Fc (Fc fusion)
chain: VIHVTKEVKEVATLSCGHNVSVEELAQTRIYWQKDKKMVLTMMSGDLNIWPEFKNRTIFDITNNLSIMILGLRPSDEGTYECVVLKYEKDAFRRVHLAEVTLSVKAD
B6: CD80 T13R/Q33R/E35D/M47L/V68M/L85M IgV-Fc (Fc fusion)
chain: B5 chain with T13R, Q33R, F53Y, G71A, L85M, R93K, V95E
B7: CD80 E35D/T41S/D46E/M47I/V68M/K93R/E95V IgV-Fc (Fc fusion)
chain: B5 chain with T41S, D46E, L47I, F53Y, G71A
B8: CD80 E35D/M47V/N48K/V68M/L85M IgV-Fc (Fc fusion)
chain: B5 chain with L47V, N48K, F53Y, G71A, L85M, R93K, V95E
B9: CD80 IgV-Fc H18Y/V22A/E35D/T41S/M47V/T62N/A71G/A91G (Fc fusion)
chain: B5 chain with H18Y, V22A, T41S, L47V, F53Y, T62N, M68V, A91G, R93K, V95E
B10: CD80 IgV-Fc E35D/D46E/M47L/V68M/L85Q/F92L (Fc fusion)
chain: B5 chain with D46E, F53Y, G71A, L85Q, F92L, R93K, V95E
B11: CD80 T13R/Q33R/E35D/M47L/V68M IgV-Fc (Fc fusion)
chain: B5 chain with T13R, Q33R, F53Y, G71A, R93K, V95E
B12: CD80 H18Y/E35D/V68M/T79M/L85M IgV-Fc (Fc fusion)
chain: B5 chain with H18Y, L47M, F53Y, G71A, T79M, L85M, R93K, V95E
B13: CD80 H18Y/E35D/M47V/V68M/L85M IgV-Fc (Fc fusion)
chain: B5 chain with H18Y, L47V, F53Y, G71A, L85M, R93K, V95E
B14: CD80 E35D/M47V/N48K/V68M/A71G/L85M IgV-Fc (Fc fusion)
chain: B5 chain with L47V, N48K, F53Y, L85M, R93K, V95E
B15: CD80 T13R/Q33R/E35D/M38I/M47L/V68M/E95V/L97Q IgV-Fc (Fc fusion)
chain: B5 chain with T13R, Q33R, M38I, F53Y, G71A, R93K, L97Q
B16: CD80 E35D/D46V/M47L/V68M/L85Q/E88D IgV-Fc, GS(G4S)5 linker (Fc fusion)
chain: VIHVTKEVKEVATLSCGHNVSVEELAQTRIYWQKDKKMVLTMMSGVLNIWPEYKNRTIFDITNNLSIMILALRPSDEGTYECVVQKYDKDAFKREHLAEVTLSVKADGSGGGGSGGGGSGGGGSGGGGSGGGGS
B17: CD80 IgV-Fc S15T/H18Y/E35D/M47V/T62A/N64S/A71G/L85Q/D90N (Fc fusion)
chain: VIHVTKEVKEVATLTCGYNVSVEELAQTRIYWQKDKKMVLTMMSGDVNIWPEYKNRTIFDIANSLSIVILGLRPSDEGTYECVVQKYEKNAFKREHLAEVTLSVKAD

Assays:
human PD-L1 (human) [1] = target: human PD-L1 (human) (UniProt Q9NZQ7); assay: flow cytometry, CHO cells stably expressing PD-L1
human PD-L1 (human), sequence (Q9NZQ7 19-290): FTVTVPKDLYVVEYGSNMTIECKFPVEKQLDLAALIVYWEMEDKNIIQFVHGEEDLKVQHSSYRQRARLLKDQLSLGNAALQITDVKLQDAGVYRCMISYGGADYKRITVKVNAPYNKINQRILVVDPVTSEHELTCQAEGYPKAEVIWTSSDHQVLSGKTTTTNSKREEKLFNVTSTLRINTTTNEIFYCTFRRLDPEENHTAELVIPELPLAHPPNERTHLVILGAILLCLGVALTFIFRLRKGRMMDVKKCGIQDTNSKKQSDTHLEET

CD28 (human) [2] = target: CD28 (human) (UniProt P10747); assay: flow cytometry, Jurkat cells (CD28); MFI over CD80 WT IgV-Fc
human PD-L1 (human) [3] = target: human PD-L1 (human) (UniProt Q9NZQ7); assay: flow cytometry, CHO/PD-L1 cells; MFI over CD80 WT IgV-Fc
CD28 (human) [4] = target: CD28 (human) (UniProt P10747); assay: flow cytometry, Jurkat cells (CD28)
CD28 (human) [5] = target: CD28 (human) (UniProt P10747)
human PD-L1 (human) [6] = target: human PD-L1 (human) (UniProt Q9NZQ7)
human CTLA-4 (human) [7] = target: human CTLA-4 (human) (UniProt P16410); assay: flow cytometry, CHO/CTLA4 cells; MFI over CD80 WT IgV-Fc
human CTLA-4 (human), sequence (P16410 36-223): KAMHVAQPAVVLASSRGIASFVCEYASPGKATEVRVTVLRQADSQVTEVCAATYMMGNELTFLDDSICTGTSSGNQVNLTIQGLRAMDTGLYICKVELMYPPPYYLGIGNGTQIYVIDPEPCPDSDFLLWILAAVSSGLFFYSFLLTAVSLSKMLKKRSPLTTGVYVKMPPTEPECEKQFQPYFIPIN

human CTLA-4 (human) [8] = target: human CTLA-4 (human) (UniProt P16410); assay: flow cytometry, CHO cells stably expressing CTLA4
human CTLA-4 (human) [9] = target: human CTLA-4 (human) (UniProt P16410); assay: flow cytometry, CHO cells expressing CTLA4
human PD-L1 (human) [10] = target: human PD-L1 (human) (UniProt Q9NZQ7); assay: flow cytometry, CHO cells expressing PD-L1
human PD-L1 (human) [11] = target: human PD-L1 (human) (UniProt Q9NZQ7); assay: flow cytometry, MFI on PD-L1 over MFI on CD28
human PD-L1 (human) [12] = target: human PD-L1 (human) (UniProt Q9NZQ7); assay: flow cytometry, MFI on CHO/PD-L1 over MFI on Jurkat (CD28)

Row | Binder | MFI at 33.3 nM (human PD-L1 (human) [1]) [MFI] | Fold change to WT CD80 (CD28 (human) [2]) [fold] | Fold change to WT CD80 (human PD-L1 (human) [3]) [fold] | MFI at 33.3 nM (CD28 (human) [4]) [MFI] | IL2-luciferase reporter, fold increase in RLU over WT CD80-IgV-Fc at 5.0 nM (CD28 (human) [5]) [fold] | IL2-luciferase reporter, fold increase in RLU over WT CD80-IgV-Fc at 5.0 nM (human PD-L1 (human) [6]) [fold] | Fold change to WT CD80 (human CTLA-4 (human) [7]) [fold] | MFI at 33.3 nM (human CTLA-4 (human) [8]) [MFI] | Fold change to WT CD80 (human CTLA-4 (human) [9]) [fold] | MFI at 33.3 nM (human CTLA-4 (human) [9]) [MFI] | Fold change to WT CD80 (CD28 (human) [4]) [fold] | Fold change to WT CD80 (human PD-L1 (human) [10]) [fold] | MFI at 33.3 nM (human PD-L1 (human) [10]) [MFI] | Ratio of PDL1:CD28 (human PD-L1 (human) [11]) | Fold change to WT (human PD-L1 (human) [1]) [fold] | Ratio of PDL1:CD28 (human PD-L1 (human) [12]) | Fold change to WT (CD28 (human) [4]) [fold] | Fold change to WT CD80 (human CTLA-4 (human) [8]) [fold]
1 | B1 | 22900 | 47.1 | 491 | 2630 | 4.38 | 4.38 | 23 | 27500 | – | – | – | – | – | – | – | – | – | –
2 | B2 | 24800 | 10.1 | 533 | 563 | 3.75 | 3.75 | 24.2 | 29000 | – | – | – | – | – | – | – | – | – | –
3 | B3 | 24500 | 23 | 525 | 1280 | 4.52 | 4.52 | 22.6 | 27100 | – | – | – | – | – | – | – | – | – | –
4 | B4 | 25500 | 3.5 | 546 | 197 | 5.25 | 5.25 | 26.8 | 32000 | – | – | – | – | – | – | – | – | – | –
5 | B5 | – | – | – | 383 | – | – | – | – | 9.1 | 16000 | 12.2 | 486 | 25000 | 65.3 | – | – | – | –
6 | B6 | – | – | – | 112 | – | – | – | – | 7.7 | 13400 | 3.6 | 368 | 18900 | 169 | – | – | – | –
7 | B7 | – | – | – | 476 | – | – | – | – | 10.5 | 18400 | 15.2 | 287 | 14800 | 31.1 | – | – | – | –
8 | B8 | – | – | – | 245 | – | – | – | – | 8.9 | 15600 | 7.8 | 148 | 7620 | 31.1 | – | – | – | –
9 | B9 | 8460 | – | – | 1590 | – | – | – | 10300 | – | – | – | – | – | – | 101 | 5 | 38.5 | 10
10 | B10 | 13200 | – | – | 15 | – | – | – | 214 | – | – | – | – | – | – | 158 | 863 | 0.4 | 0.2
11 | B11 | – | – | – | 14.1 | – | – | – | – | 11.8 | 20700 | 0.4 | 285 | 14700 | 1040 | – | – | – | –
12 | B12 | – | – | – | 1040 | – | – | – | – | 9.3 | 16300 | 33.2 | 290 | 14900 | 14.3 | – | – | – | –
13 | B13 | – | – | – | 373 | – | – | – | – | 10.5 | 18400 | 11.9 | 326 | 16800 | 45 | – | – | – | –
14 | B14 | – | – | – | 302 | – | – | – | – | 9.5 | 16600 | 9.6 | 442 | 22800 | 75.4 | – | – | – | –
15 | B15 | – | – | – | 1110 | – | – | – | – | 11.8 | 20700 | 35.4 | 372 | 19200 | 17.2 | – | – | – | –
16 | B16 | 22400 | 2.6 | 481 | 143 | 5.26 | 5.26 | 22.2 | 26600 | – | – | – | – | – | – | – | – | – | –
17 | B17 | 13900 | – | – | 1070 | – | – | – | 11000 | – | – | – | – | – | – | 166 | 13 | 25.9 | 10.7
